The record followed here is the Human Domainome abundance scans (Beltran et al. 2025).

First the molecules themselves.
B1: Far upstream element-binding protein 1, residues 184 to 257; numbered along this chain, Q96AE4 (parent)
chain: GNAVQEIMIPASKAGLVIGKGGETIKQLQERAGVKMVMIQDGPQNTGADKPLRITGDPYKVQQAKEMVLELIRD

± gives the uncertainty stated by the source.

The variants in the series derive from B1. The series can be described thus: abundance fitness (aPCA) (normalised: wild type 0, dead -1); higher = more abundant; growth selection in yeast, the domain comes from the species named. As to conditions: Homo sapiens.
Turning to GNAVQEIMIPASKAGNVIGKGGETIKQLQERAGVKMVMIQDGPQNTGADKPLRITGDPYKVQQAKEMVLELIRD [L16N], the abundance fitness was -0.103 ± 0.052.

With GNAVQEIMIPASKAGRVIGKGGETIKQLQERAGVKMVMIQDGPQNTGADKPLRITGDPYKVQQAKEMVLELIRD [L16R], the abundance fitness was -0.087 ± 0.026.

For GNAVQEIMIPASKAGPVIGKGGETIKQLQERAGVKMVMIQDGPQNTGADKPLRITGDPYKVQQAKEMVLELIRD [L16P], the abundance fitness was -0.581 ± 0.038.

As for GNAVQEIMIPASKAGHVIGKGGETIKQLQERAGVKMVMIQDGPQNTGADKPLRITGDPYKVQQAKEMVLELIRD [L16H], the abundance fitness was -0.15 ± 0.047.

In the case of GNAVQEIMIPASKAGWVIGKGGETIKQLQERAGVKMVMIQDGPQNTGADKPLRITGDPYKVQQAKEMVLELIRD [L16W], the abundance fitness is -0.068 ± 0.033.

On to GNAVQEIMIPASKAGTVIGKGGETIKQLQERAGVKMVMIQDGPQNTGADKPLRITGDPYKVQQAKEMVLELIRD [L16T], for which the abundance fitness was -0.058 ± 0.033.

With GNAVQEIMIPASKAGGVIGKGGETIKQLQERAGVKMVMIQDGPQNTGADKPLRITGDPYKVQQAKEMVLELIRD [L16G], the abundance fitness was -0.191 ± 0.029.

As for GNAVQEIMIPASKAGQVIGKGGETIKQLQERAGVKMVMIQDGPQNTGADKPLRITGDPYKVQQAKEMVLELIRD [L16Q], the abundance fitness was -0.093 ± 0.036.

With GNAVQEIMIPASKAGMVIGKGGETIKQLQERAGVKMVMIQDGPQNTGADKPLRITGDPYKVQQAKEMVLELIRD [L16M], the abundance fitness was -0.018 ± 0.038.

In the case of GNAVQEIMIPASKAGAVIGKGGETIKQLQERAGVKMVMIQDGPQNTGADKPLRITGDPYKVQQAKEMVLELIRD [L16A], the abundance fitness is -0.028 ± 0.033.

Consider GNAVQEIMIPASKAGIVIGKGGETIKQLQERAGVKMVMIQDGPQNTGADKPLRITGDPYKVQQAKEMVLELIRD [L16I], for which the abundance fitness was -0.048 ± 0.055.

On to GNAVQEIMIPASKAGCVIGKGGETIKQLQERAGVKMVMIQDGPQNTGADKPLRITGDPYKVQQAKEMVLELIRD [L16C], for which the abundance fitness is -0.147 ± 0.043.

For the variant GNAVQEIMIPASKAGSVIGKGGETIKQLQERAGVKMVMIQDGPQNTGADKPLRITGDPYKVQQAKEMVLELIRD [L16S], the abundance fitness was -0.122 ± 0.031.

Consider GNAVQEIMIPASKAGLVPGKGGETIKQLQERAGVKMVMIQDGPQNTGADKPLRITGDPYKVQQAKEMVLELIRD [I18P], for which the abundance fitness was -0.292 ± 0.032.

As for GNAVQEIMIPASKAGLVHGKGGETIKQLQERAGVKMVMIQDGPQNTGADKPLRITGDPYKVQQAKEMVLELIRD [I18H], the abundance fitness was -0.009 ± 0.046.

Regarding GNAVQEIMIPASKAGLVLGKGGETIKQLQERAGVKMVMIQDGPQNTGADKPLRITGDPYKVQQAKEMVLELIRD [I18L], the abundance fitness was 0.008 ± 0.031.

Consider GNAVQEIMIPASKAGLVEGKGGETIKQLQERAGVKMVMIQDGPQNTGADKPLRITGDPYKVQQAKEMVLELIRD [I18E], for which the abundance fitness was -0.028 ± 0.035.

Take GNAVQEIMIPASKAGLVGGKGGETIKQLQERAGVKMVMIQDGPQNTGADKPLRITGDPYKVQQAKEMVLELIRD [I18G]: the abundance fitness is -0.148 ± 0.029.

GNAVQEIMIPASKAGLVDGKGGETIKQLQERAGVKMVMIQDGPQNTGADKPLRITGDPYKVQQAKEMVLELIRD [I18D]: the abundance fitness is -0.152 ± 0.045.

As to GNAVQEIMIPASKAGLVCGKGGETIKQLQERAGVKMVMIQDGPQNTGADKPLRITGDPYKVQQAKEMVLELIRD [I18C], the abundance fitness is -0.12 ± 0.046.

GNAVQEIMIPASKAGLVMGKGGETIKQLQERAGVKMVMIQDGPQNTGADKPLRITGDPYKVQQAKEMVLELIRD [I18M]: the abundance fitness was -0.065 ± 0.041.

For the variant GNAVQEIMIPASKAGLVKGKGGETIKQLQERAGVKMVMIQDGPQNTGADKPLRITGDPYKVQQAKEMVLELIRD [I18K], the abundance fitness was -0.117 ± 0.039.

On to GNAVQEIMIPASKAGLVAGKGGETIKQLQERAGVKMVMIQDGPQNTGADKPLRITGDPYKVQQAKEMVLELIRD [I18A], for which the abundance fitness is 0.038 ± 0.031.

For the variant GNAVQEIMIPASKGGLVIGKGGETIKQLQERAGVKMVMIQDGPQNTGADKPLRITGDPYKVQQAKEMVLELIRD [A14G], the abundance fitness was -0.193 ± 0.032.

For the variant GNAVQEIMIPASKMGLVIGKGGETIKQLQERAGVKMVMIQDGPQNTGADKPLRITGDPYKVQQAKEMVLELIRD [A14M], the abundance fitness stood at 0.033 ± 0.043.

Take GNAVQEIMIPASKHGLVIGKGGETIKQLQERAGVKMVMIQDGPQNTGADKPLRITGDPYKVQQAKEMVLELIRD [A14H]: the abundance fitness was found to be 0.034 ± 0.049.

As for GNAVQEIMIPASKLGLVIGKGGETIKQLQERAGVKMVMIQDGPQNTGADKPLRITGDPYKVQQAKEMVLELIRD [A14L], the abundance fitness came to 0.042 ± 0.031.

GNAVQEIMIPASKYGLVIGKGGETIKQLQERAGVKMVMIQDGPQNTGADKPLRITGDPYKVQQAKEMVLELIRD [A14Y]: the abundance fitness is -0.039 ± 0.052.

As to GNAVQEIMIPASKKGLVIGKGGETIKQLQERAGVKMVMIQDGPQNTGADKPLRITGDPYKVQQAKEMVLELIRD [A14K], the abundance fitness is -0.065 ± 0.047.

Consider GNAVQEIMIPASKSGLVIGKGGETIKQLQERAGVKMVMIQDGPQNTGADKPLRITGDPYKVQQAKEMVLELIRD [A14S], for which the abundance fitness is -0.049 ± 0.032.

For GNAVQEIMIPASKVGLVIGKGGETIKQLQERAGVKMVMIQDGPQNTGADKPLRITGDPYKVQQAKEMVLELIRD [A14V], the abundance fitness was -0.017 ± 0.035.

On to GNAVQEIMIPASKIGLVIGKGGETIKQLQERAGVKMVMIQDGPQNTGADKPLRITGDPYKVQQAKEMVLELIRD [A14I], for which the abundance fitness worked out at 0.039 ± 0.064.

Take GNAVQEIMIPASKNGLVIGKGGETIKQLQERAGVKMVMIQDGPQNTGADKPLRITGDPYKVQQAKEMVLELIRD [A14N]: the abundance fitness is -0.061 ± 0.058.

Consider GNAVQEIMIPASKTGLVIGKGGETIKQLQERAGVKMVMIQDGPQNTGADKPLRITGDPYKVQQAKEMVLELIRD [A14T], for which the abundance fitness is 0.035 ± 0.035.

On to GNAVQEIMIPASKRGLVIGKGGETIKQLQERAGVKMVMIQDGPQNTGADKPLRITGDPYKVQQAKEMVLELIRD [A14R], for which the abundance fitness stood at 0.001 ± 0.028.

Take GNAVQEIMIPASKPGLVIGKGGETIKQLQERAGVKMVMIQDGPQNTGADKPLRITGDPYKVQQAKEMVLELIRD [A14P]: the abundance fitness was -0.643 ± 0.039.

For GNAVQEIMIPASKQGLVIGKGGETIKQLQERAGVKMVMIQDGPQNTGADKPLRITGDPYKVQQAKEMVLELIRD [A14Q], the abundance fitness worked out at 0.028 ± 0.038.
